Biological target: the molecule itself
Assay: crystal structure; BsPatB, sitting drop, 0.2 M ammonium acetate pH 7.1, 20% PEG 3,350

B1: Bacillus subtilis 168 PatB (PLP-bound C-S lyase) (enzyme)
chain: MGGGFAMNFDKREERLGTQSVKWDKTGELFGVTDALPMWVADMDFRAPEAITEALKERLDHGIFGYTTPDQKTKDAVCGWMQNRHGWKVNPESITFSPGVVTALSMAVQAFTEPGDQVVVQPPVYTPFYHMVEKNGRHILHNPLLEKDGAYAIDFEDLETKLSDPSVTLFILCNPHNPSGRSWSREDLLKLGELCLEHGVTVVSDEIHSDLMLYGHKHTPFASLSDDFADISVTCAAPSKTFNIAGLQASAIIIPDRLKRAKFSASLQRNGLGGLNAFAVTAIEAAYSKGGPWLDELITYIEKNMNEAEAFLSTELPKVKMMKPDASYLIWLDFSAYGLSDAELQQRMLKKGKVILEPGTKYGPGGEGFMRLNAGCSLATLQDGLRRIKAALSENLYFQG
modifications: PLP covalently bound to Lys234 (internal aldimine)
notes: N-terminal overhang from cloning into pBADcLIC; PatB (C-S lyase, cystathionine beta-lyase activity) of Bacillus subtilis 168, full-length gene; C-terminal linker of the vector before the His10 tag; also called BsPatB; source: E. coli MC1061, pBADcLIC, purified (HisTrap)
**Q.** For B1, which “stoichiometry N” value is on record?
**A.** Its value is 2.
